Holding throughout (conditions): protein: recombinant; tags: C-terminal His6; label: 5' fluorescein or TAMRA (FA); unlabeled (NMR)
The target of data set [1] is T1, Nrd1 307-491 K380A (Saccharomyces cerevisiae, UniProt P53617 307-491, K380A).
T1 sequence: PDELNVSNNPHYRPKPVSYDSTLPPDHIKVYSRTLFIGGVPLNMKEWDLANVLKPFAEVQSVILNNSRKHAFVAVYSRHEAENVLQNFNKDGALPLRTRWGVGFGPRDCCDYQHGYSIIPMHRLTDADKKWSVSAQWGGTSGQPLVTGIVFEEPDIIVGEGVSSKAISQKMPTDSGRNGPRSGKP
In words: fluorescence anisotropy; text says binding abolished; FA: 10 nM RNA, 50 mM sodium phosphate pH 8, 150 mM NaCl, 10 mM beta-mercaptoethanol, 20 C (protein stock in 300 mM NaCl); NMR: same buffer with 300 mM NaCl, 20.

Data set [2] concerns the target T2, Nrd1 307-491 T340A (Saccharomyces cerevisiae, UniProt P53617 307-491, T340A).
T2 sequence: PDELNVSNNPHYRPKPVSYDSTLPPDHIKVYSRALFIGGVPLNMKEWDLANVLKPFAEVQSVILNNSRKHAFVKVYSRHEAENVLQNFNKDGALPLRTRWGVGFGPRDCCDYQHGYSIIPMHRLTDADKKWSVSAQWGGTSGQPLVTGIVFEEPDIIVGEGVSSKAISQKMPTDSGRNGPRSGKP
Description: fluorescence anisotropy; FA: 10 nM RNA, 50 mM sodium phosphate pH 8, 150 mM NaCl, 10 mM beta-mercaptoethanol, 20 C (protein stock in 300 mM NaCl); NMR: same buffer with 300 mM NaCl, 20. (Fluorescence polarisation rises when a labelled molecule tumbles more slowly, as on binding a larger partner.)

In data set [3] the target is T3, Nrd1 307-491 K435D (Saccharomyces cerevisiae, UniProt P53617 307-491, K435D).
T3 sequence: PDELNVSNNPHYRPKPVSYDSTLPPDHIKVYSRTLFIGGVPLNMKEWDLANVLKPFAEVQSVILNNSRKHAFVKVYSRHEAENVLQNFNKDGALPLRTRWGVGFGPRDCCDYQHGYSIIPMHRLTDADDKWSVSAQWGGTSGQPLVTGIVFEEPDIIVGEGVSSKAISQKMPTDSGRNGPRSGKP
Described as above.

The target in data set [4] is T4, Nrd1 307-491 G409A (Saccharomyces cerevisiae, UniProt P53617 307-491, G409A).
T4 sequence: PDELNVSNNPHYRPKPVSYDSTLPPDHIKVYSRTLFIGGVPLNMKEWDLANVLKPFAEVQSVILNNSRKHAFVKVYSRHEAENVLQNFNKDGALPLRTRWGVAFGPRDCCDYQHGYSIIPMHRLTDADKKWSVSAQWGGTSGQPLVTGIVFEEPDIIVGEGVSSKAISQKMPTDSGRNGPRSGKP
The description is as above.

Data set [5] deals with T5, Nrd1 307-491 Y382A (Saccharomyces cerevisiae, UniProt P53617 307-491, Y382A).
T5 sequence: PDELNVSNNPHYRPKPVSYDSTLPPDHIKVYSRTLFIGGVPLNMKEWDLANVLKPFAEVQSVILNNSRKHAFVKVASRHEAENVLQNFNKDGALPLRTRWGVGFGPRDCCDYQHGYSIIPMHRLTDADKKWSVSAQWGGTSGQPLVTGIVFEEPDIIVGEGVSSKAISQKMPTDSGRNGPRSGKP
The description is as above.

Data set [6] concerns the target T6, Nrd1 307-491 R405A (Saccharomyces cerevisiae, UniProt P53617 307-491, R405A).
T6 sequence: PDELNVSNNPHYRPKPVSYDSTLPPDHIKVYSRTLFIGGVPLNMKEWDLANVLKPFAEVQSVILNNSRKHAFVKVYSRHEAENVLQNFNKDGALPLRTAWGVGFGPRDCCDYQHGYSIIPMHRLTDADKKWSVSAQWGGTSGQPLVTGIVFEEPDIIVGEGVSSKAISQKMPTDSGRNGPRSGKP
Described as above.

What is called Kd is the constant that tells how readily two partners part at equilibrium. For GUAA (ssRNA), the equilibrium dissociation constant (Kd) came to 442 ± 24.7 µM in data set [1]; 153 ± 32.8 µM in data set [2]; 16.2 ± 1.7 µM in data set [3]; 157 ± 7.7 µM in data set [4]; 32.1 ± 1.3 µM in data set [5]; 17.3 ± 0.9 µM in data set [6].
